Measured values reported in patent US20240117073A1, “METHODS OF TREATING NEOPLASTIC ASTROCYTOMA” (Ludwig Institute for Cancer Research Ltd., priority 2009, published 2024).
“Also recorded” adds a separate entry of the source. Marks after values point to notes of the source that are not given here.

Columns and labels:
[1] = system: A431 xenografts; experiment: combination therapy with AG1478, preventative model; format: in vivo, mice; details: 0.1 mg mAb806; 400 μg AG1478
Method: AG1478 (4-(3-Chloroanilino)-6,7-dimethoxyquinazoline) is a potent and selective inhibitor of the EGFR kinase versus HER2-neu and platelet-derived growth factor receptor kinase (Calbiochem Cat. No. 658552). […] The results are illustrated in FIG. 12. […] 400 μg AG1478 was administered at 0, 2, 4, 7, 9, and 11 days post xenograft.

[2] = system: MDA-468 breast cancer cell line; experiment: FACS binding to cell lines; format: cell-based, human
[3] = system: U87MG xenografts; experiment: preventative xenograft model; format: in vivo, nude mice; details: 1 mg per injection i.p., 3 times per week for 2 weeks
Method: (§1) Tumor cells (3×10^6) in […] of PBS were inoculated subcutaneously into both flanks of 4-6 week old female nude mice (Animal Research Centre, Western Australia, Australia). […] Treatment was continued for a total of 6 doses, 3 times per week for 2 weeks. In the established model, treatment was started when tumors had reached a mean volume of 65±6.42 mm^3 (U87MG.Δ2-7), 84±9.07 mm^3 (U87MG), 73±7.5 mm^3 (U87MG.wtEGFR) or 201±19.09 mm^3 (A431 tumors). Tumor volume in mm^3 was determined using the formula (length×width^2)/2, where length was the longest axis and width the measurement at right angles to the length (Clark et al. (2000) Therapeutic efficacy of anti-Lewis (y) humanized 3S 193 radioimmunotherapy in a breast cancer model: enhanced activity when combined with Taxol chemotherapy. Clin. Cancer Res. 6, 3621-3628). Data was expressed as mean tumor volume±S.E. for each treatment group. Statistical analysis was performed at given time points using Student's t-test. Animals were euthanized when the xenografts reached an approximate volume of 1.5 cm^3 and the tumors excised for histological examination. This research project was approved by the Animal Ethics Committee of the Austin and Repatriation Medical Centre.

[4] = system: U87MG xenografts; experiment: established xenograft model; format: in vivo, nude mice; details: 1 mg per injection
Method: as §1, with “Centre. […]” for “Centre.”

[5] = biological target: T1, Peptide C: LEEKKGNYVVTDH(K-Biot)-OH (Homo sapiens, UniProt P00533, DELINS30-297G); experiment: BIAcore, immobilized Peptide C; format: binding; details: mAbL8A4 even at 6.25 nM; mAb806 up to 100 nM (highest tested)
T1 construct: purchased Biosource, Camarillo, CA; host or cells: synthetic
Method: Peptide C was immobilized on a Streptavidin microsensor chip at a surface density of 350RU (+/−30RU). Serial dilutions of mAbs were tested for reactivity with the peptide. Blocking experiments using non-biotinylated peptide were performed to assess specificity.

[6] = biological target: T2, denatured soluble domain of the EGFR (sEGFR) (Homo sapiens, UniProt P00533); experiment: competition ELISA; format: binding; details: after unlabeled blocking antibody
T2 construct: sEGFR is the recombinant extracellular domain (amino acids 1-621) of the wild-type EGFR; made in house; host or cells: CHO cells
Method: Briefly, the denatured soluble domain of the EGFR (sEGFR) was coated on to ELISA plates. The unlabeled 124 or 1133 antibodies were then added across the plate in increasing concentrations.

[7] = system: U87MG.DK cells; experiment: FACS binding to cell lines; format: cell-based, human
Method: Stained cells were analyzed with a FACS Calibur™ using Cell Quest™ software (Becton-Dickinson PharMingen). […] 1. Mouse IgG2a or IgG2b was used as an isotype control.

[8] = system: panel of 12 different malignancies; experiment: immunohistochemistry of tumor panel; parameters: species or system human
Method: Immunohistochemical analysis was performed using […] sections of fresh frozen tissue applied to histology slides and fixed for 10 minutes in cold acetone. Bound primary antibody was detected with biotinylated horse anti-mouse antibody followed by an avidin-biotin-complex reaction. Diaminobenzidine tetra hydrochloride (DAB) was used as chromogen. The extent of the immunohistochemical reactivity in tissues was estimated by light microscopy and graded according to the number of immunoreactive cells in 25% increments as follows: • Focal=less than 5% • +=5-25% • ++=25-50% • +++=50-75% • ++++=>75%
The extent of de2-7 EGFR in other tumor types was examined using a panel of 12 different malignancies. […] This staining was strongly dependent on antibody concentration used and was considered nonspecific background reactivity.

[9] = system: xenograft A431; experiment: immunohistochemistry of xenograft sections; parameters: species or system human
Method: (§2) Xenografts were excised and bisected. One half was fixed in 10% formalin/PBS before being embedded in paraffin. Four micron sections were then cut and stained with haematoxylin and eosin (H&E) for routine histological examination. The other half was embedded in Tissue Tek® OCT compound (Sakura Finetek, Torrance, CA), frozen in liquid nitrogen and stored at −80° C. Thin (5 micron) cryostat sections were cut and fixed in ice-cold acetone for 10 min followed by air drying for a further 10 min. Sections were blocked in protein blocking reagent (Lipshaw Immunon, Pittsburgh U.S.A.) for 10 min and then incubated with biotinylated primary antibody (1 mg/ml), for 30 min at room temperature (RT). All antibodies were biotinylated using the ECL™ protein biotinylation module (Amersham, Baulkham Hills, Australia), as per the manufacturer's instructions. After rinsing with PBS, sections were incubated with a streptavidin horseradish peroxidase complex for a further 30 min (Silenus, Melbourne, Australia). Following a final PBS wash the sections were exposed to 3-amino-9-ethylcarbozole (AEC) substrate (0.1 M acetic acid, 0.1 M sodium acetate, 0.02 M AEC (Sigma Chemical Co., St Louis, MO)) in the presence of hydrogen peroxide for 30 min. Sections were rinsed with water and counterstained with hematoxylin for 5 min and mounted.
(§3) Bound antibody was detected using the Dako Envision™+HRP detection system as per manufacturer's instructions. Sections were finally rinsed with water, counterstained with hematoxylin and mounted.

[10] = system: xenograft U87MG (native); experiment: immunohistochemistry of xenograft sections; parameters: species or system human
Method: as §2, §3

[11] = system: parental U87MG cells; experiment: binding of iodinated antibody to cells; parameters: species or system human
[12] = system: HN5 head and neck cell line; experiment: FACS binding to cell lines; format: cell-based, human

B1: mAb806: murine monoclonal antibody recognizing de2-7 EGFR and amplified EGFR; VH SEQ ID NO:2, VL SEQ ID NO:4 (antibody, listed as Mus musculus, V domains shown)
VH: MRVLILLWLFTAFPGVLSDVQLQESGPSLVKPSQSLSLTCTVTGYSITSDFAWNWIRQFPGNKLEWMGYISYSGNTRYNPSLKSRISITRDTSKNQFFLQLNSVTIEDTATYYCVTAGRGFPYWGQGTLVTVSA
VL: MVSTAQFLAFLLLWFPGARCDILMTQSPSSMSVSLGDTVSITCHSSQDINSNIGWLQQRPGKSFKGLIYHGTNLDDEVPSRFSGSGSGADYSLTISSLESEDFADYYCVQYAQFPWTFGGGTKLEIKR
For B1, which tumor volume [1] is on record?
Its tumor volume is “significant reduction of tumor volume”.

What about the FACS staining [2] of the same molecule?
Its FACS staining is “clearly stained both cell lines but at a lower level”.

And the “effect on xenograft growth” value [3]?
The value was “no effect”.

What about the “effect on xenograft growth” value [4] of the same molecule?
Its value is “no effect”.

And the “reactivity with Peptide C” value [5]?
The value was “did not show detectable specific reactivity”.

And the “Binding of biotin-labeled 806” value [6]?
The value was “None”.

What about the FACS staining [7] of the same molecule?
The FACS staining was “reacted intensely”.

What about the positive tumors/tumors tested ([8]; Colonic carcinoma) of the same molecule?
The positive tumors/tumors tested was 0/10.

What about the positive tumors/tumors tested ([8]; Head + neck cancer (sqcc)) of the same molecule?
The positive tumors/tumors tested was 7/11.

And the positive tumors/tumors tested ([8]; Leiomyosarcoma)?
Its positive tumors/tumors tested is 0/5.

And the positive tumors/tumors tested ([8]; Liposarcoma)?
Its positive tumors/tumors tested is 0/5*.

What about the positive tumors/tumors tested ([8]; Lung (sqcc, adeno, neuroend)) of the same molecule?
The positive tumors/tumors tested was 6/12.

And the positive tumors/tumors tested ([8]; Malignant melanoma metastases)?
The positive tumors/tumors tested was 0/10.

What about the positive tumors/tumors tested ([8]; Mammary gland) of the same molecule?
The positive tumors/tumors tested was 1/10.

And the “staining grades of positive tumors” value ([8]; Mammary gland)?
Its value is “(foc)”.

And the positive tumors/tumors tested ([8]; Mfh Malignant fibrous histiocytoma)?
Its positive tumors/tumors tested is 0/5*.

What about the positive tumors/tumors tested ([8]; Ovary (serous-papillary)) of the same molecule?
The positive tumors/tumors tested was 0/5.

What about the positive tumors/tumors tested ([8]; Seminoma) of the same molecule?
The positive tumors/tumors tested was 0/10.

And the positive tumors/tumors tested ([8]; Synovial sarcoma)?
The positive tumors/tumors tested was 0/5*.

What about the positive tumors/tumors tested ([8]; Urinary bladder (tcc, sqcc, adeno)) of the same molecule?
The positive tumors/tumors tested was 3/10*.

What about the “tumors with positive staining” value ([8]; head and neck tumors) of the same molecule?
The value was 64%.

And the “tumors with positive staining” value ([8]; lung carcinomas)?
The value was 50%.

And the “tumors with positive staining” value ([8]; urinary tumors)?
Its value is 30%.

And the immunohistochemical staining [9]?
Its immunohistochemical staining is “pos. (predominantly”.

And the immunohistochemical staining [10]?
The immunohistochemical staining was “undetectable”.

And the “binding of iodinated antibody” value [11]?
The value was “Neither ^125I-radiolabeled mAb806 or the DH8.3 antibody bound; also recorded: did not bind”.

What about the FACS staining [12] of the same molecule?
The FACS staining was “clearly stained both cell lines but at a lower level”.
